Measured values reported in the supplement of paper PMC5998384.

What was measured:
[1] = tested on: HeLa Kyoto; experiment: thermal stability score vs G1/S (z-score of summed log2 fold changes over temperatures); higher = more thermally stable than in G1/S
[2] = tested on: HeLa Kyoto; experiment: solubility in G1/S (NP-40 vs SDS abundance) (log2 ratio); higher = more soluble; conditions: cell cycle stage: G1/S
[3] = tested on: HeLa Kyoto; experiment: melting temperature (median over replicates), in situ; higher = more thermally stable
[4] = tested on: HeLa Kyoto; experiment: solubility change mitosis vs G1/S (difference of NP-40 vs SDS log2 ratios) (log2 ratio difference); higher = more soluble in mitosis
[5] = cell cycle stage: early G1 (4.5 h after nocodazole release)
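Throughout, for melting temperature (median over replicates), in situ: HeLa Kyoto cells synchronized by double thymidine or nocodazole block, proteins quantified by TMT10plex mass spectrometry, three independent biological replicates.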
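Throughout, for solubility change mitosis vs G1/S (difference of NP-40 vs SDS log2 ratios): synchronized HeLa Kyoto cells (double thymidine block for G1/S, nocodazole release for mitosis), protein amounts in NP-40 versus SDS lysates quantified by mass spectrometry, three biological replicates.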
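Throughout, for solubility in G1/S (NP-40 vs SDS abundance): HeLa Kyoto cells arrested at G1/S by double thymidine block, proteins quantified by TMT10plex mass spectrometry in mild NP-40 versus SDS extracts, three biological replicates.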
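Throughout, for thermal stability score vs G1/S (z-score of summed log2 fold changes over temperatures): synchronized HeLa Kyoto cells, proteins quantified by TMT10plex mass spectrometry, three biological replicates, mitosis taken 0.5 h after nocodazole release, G1/S directly after double thymidine block.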

Q: How did the thermal stability score [1, 5] turn out when “MKSARAKTPRKPTVKKGSQTNLKDPVGVYCRVRPLGFPDQECCIEVINNTTVQLHTPEGYRLNRNGDYKETQYSFKQVFGTHTTQKELFDVVANPLVNDLIHGKNGLLFTYGVTGSGKTHTMTGSPGEGGLLPRCLDMIFNSIGSFQAKRYVFKSNDRNSMDIQCEVDALLERQKREAMPNPKTSSSKRQVDPEFADMITVQEFCKAEEVDEDSVYGVFVSYIEIYNNYIYDLLEEVPFDPIKPKPPQSKLLREDKNHNMYVAGCTEVEVKSTEEAFEVFWRGQKKRRIANTHLNRESSRSHSVFNIKLVQAPLDADGDNVLQEKEQITISQLSLVDLAGSERTNRTRAEGNRLREAGNINQSLMTLRTCMDVLRENQMYGTNKMVPYRDSKLTHLFKNYFDGEGKVRMIVCVNPKAEDYEENLQVMRFAEVTQEVEVARPVDKAICGLTPGRRYRNQPRGPVGNEPLVTDVVLQSFPPLPSCEILDINDEQTLPRLIEALEKRHNLRQMMIDEFNKQSNAFKALLQEFDNAVLSKENHMQGKLNEKEKMISGQKLEIERLEKKNKTLEYKIEILEKTTTIYEEDKRNLQQELETQNQKLQRQFSDKRRLEARLQGMVTETTMKWEKECERRVAAKQLEMQNKLWVKDEKLKQLKAIVTEPKTEKPERPSRERDREKVTQRSVSPSPVPLSSNYIAQISNGQQLMSQPQLHRRSNSCSSISVASCISEWEQKIPTYNTPLKVTSIARRRQQEPGQSKTCIVSDRRRGMYWTEGREVVPTFRNEIEIEEDHCGRLLFQPDQNAPPIRLRHRRSRSAGDRWVDHKPASNMQTETVMQPHVPHAITVSVANEKALAKCEKYMLTHQELASDGEIETKLIKGDIYKTRGGGQSVQFTDIETLKQESPNGSRKRRSSTVAPAQPDGAESEWTDVETRCSVAVEMRAGSQLGPGYQHHAQPKRKKP [KIF23]” was run?
A: 0.0501

Q: What about the thermal stability score ([1]; cell cycle stage: mitosis) of the same sequence?
A: 0.448

Q: And the “solubility in G1/S (log2)” value [2]?
A: -0.255

Q: And the melting temperature ([3]; cell cycle stage: G1/S)?
A: 49.3 °C

Q: What about the melting temperature ([3]; cell cycle stage: mitosis) of the same sequence?
A: 49.6 °C

Q: And the “solubility change mitosis (log2)” value [4]?
A: -0.112

Q: For “MGDAPSPEEKLHLITRNLQEVLGEEKLKEILKERELKIYWGTATTGKPHVAYFVPMSKIADFLKAGCEVTILFADLHAYLDNMKAPWELLELRVSYYENVIKAMLESIGVPLEKLKFIKGTDYQLSKEYTLDVYRLSSVVTQHDSKKAGAEVVKQVEHPLLSGLLYPGLQALDEEYLKVDAQFGGIDQRKIFTFAEKYLPALGYSKRVHLMNPMVPGLTGSKMSSSEEESKIDLLDRKEDVKKKLKKAFCEPGNVENNGVLSFIKHVLFPLKSEFVILRDEKWGGNKTYTAYVDLEKDFAAEVVHPGDLKNSVEVALNKLLDPIREKFNTPALKKLASAAYPDPSKQKPMAKGPAKNSEPEEVIPSRLDIRVGKIITVEKHPDADSLYVEKIDVGEAEPRTVVSGLVQFVPKEELQDRLVVVLCNLKPQKMRGVESQGMLLCASIEGINRQVEPLDPPAGSAPGEHVFVKGYEKGQPDEELKPKKKVFEKLQADFKISEECIAQWKQTNFMTKLGSISCKSLKGGNIS [YARS]”, which thermal stability score [1, 5] is on record?
A: 0.25

Q: And the thermal stability score ([1]; cell cycle stage: mitosis)?
A: 2.33

Q: What about the “solubility in G1/S (log2)” value [2] of the same sequence?
A: 0.259

Q: What about the melting temperature ([3]; cell cycle stage: G1/S) of the same sequence?
A: 49.3 °C

Q: And the melting temperature ([3]; cell cycle stage: mitosis)?
A: 49.4 °C

Q: What about the “solubility change mitosis (log2)” value [4] of the same sequence?
A: -0.092

Q: Which results are given for “MAELVQGQSAPVGMKAEGFVDALHRVRQIAAKIDSIPHLNNSTPLVDPSVYGYGVQKRPLDDGVGNQLGALVHQRTVITEEFKVPDKMVGFIIGRGGEQISRIQAESGCKIQIASESSGIPERPCVLTGTPESIEQAKRLLGQIVDRCRNGPGFHNDIDSNSTIQEILIPASKVGLVIGRGGETIKQLQERTGVKMVMIQDGPLPTGADKPLRITGDAFKVQQAREMVLEIIREKDQADFRGVRGDFNSRMGGGSIEVSVPRFAVGIVIGRNGEMIKKIQNDAGVRIQFKPDDGISPERAAQVMGPPDRCQHAAHIISELILTAQERDGFGGLAAARGRGRGRGDWSVGAPGGVQEITYTVPADKCGLVIGKGGENIKSINQQSGAHVELQRNPPPNSDPNLRRFTIRGVPQQIEVARQLIDEKVGGTNLGAPGAFGQSPFSQPPAPPHQNTFPPRSSGCFPNMAAKVNGNPHSTPVSGPPAFLTQGWGSTYQAWQQPTQQVPSQQSQPQSSQPNYSKAWEDYYKKQSHAASAAPQASSPPDYTMAWAEYYRQQVAFYGQTLGQAQAHSQEQ [FUBP3]”?
A: thermal stability score [1, 5]: 0.0807; thermal stability score ([1]; cell cycle stage: mitosis): 1.05; solubility in G1/S (log2) [2]: 0.337; melting temperature ([3]; cell cycle stage: G1/S): 48.7 °C; melting temperature ([3]; cell cycle stage: mitosis): 49.5 °C; solubility change mitosis (log2) [4]: -0.0288
